Test [1] deals with T1, recombinant human VEGFR-1 Fc (human, UniProt P17948-2 27-687, limits assumed).
T1 construct: Bought from R&D Systems; also called rhuVEGFR-1 Fc; HuVEGFR-I-Fc; not shown: Fc part
Nature of the test: ELISA: plate coated with HuVEGFR-1-Fc 100 ng/well, goat anti-human kappa-HRP, O.D. 450. Here is the method:
TMB (3,3′,5,5′-tetra-methylbenzidine) substrate (Kierkegaard and Perry Lab, Inc., Gaithersburg, Md.) was used for color development following the manufacturer's instruction. The absorbance at 450 nanometers (nm) was read for quantification of binding activity of antibodies. For identification of the hybridomas producing anti-VEGFR-I antibodies, hybridoma supernatants were preincubated with VEGFR-I AP for 1 hour. […] PNPP (p-nitrophenyl phosphate) substrate for AP was used for color development following the manufacturer's instruction. The absorbance at 405 nm was read for quantification of VEGFR-I binding to VEGF or P1GF. Optical density (OD) values were read on a microtiter plate reader (Molecular Devices Corp., Sunnyvale, Calif.). ED50 and IC50 of the antibodies were analyzed using GraphPad Prism 3 software (GraphPad Software, Inc., San Diego, Calif.).
HuVEGFR-I-Fc, mouse VEGFR-I-AP (hnClone Systems) or huVEGFR-2-AP (ImClone Systems) (100 ng/well) was coated on 96 strip-well plates and blocked with 5% milk/PBS. […]

Another test addresses T2, mouse VEGFR-2 Fc (mouse, UniProt P35918 20-762, limits assumed).
T2 construct: not shown: Fc part; not described
The test can be described thus: ELISA: antibody dilutions on plate coated with 1 µg/ml mouse VEGFR-2 Fc, HRP secondary, O.D. 450. Here is the method:
(§1) To determine the specificity of an anti-VEGFR-1 monoclonal antibody to human VEGFR-I, purified antibodies 18F1 were tested in an ELISA-based assay. One μg/ml of recombinant human VEGFR-I Fc, mouse VEGFR-I Fc, mouse VEGFR-2 Fc, or human VEGFR-2 alkaline phosphatase was coated with PBS in a 96-well microtiter plates at 4° C. over night. After wash, the receptor coated plates were blocked with PBS containing 5% Dry Milk and 0.05% Tween 20. Serial dilutions of primary antibody 18F1 to human VEGFR-I, MF1 to mouse VEGFR-I, IC1 1 to human VEGFR-2, or DClOl to mouse VEGFR-2 were incubated in the receptor-coated plates for 30 minutes. After wash secondary anti-primary HRP conjugate antibodies was incubated in the plates for 30 minutes. Plates were washed and incubated with the substrate TMB (3,3′,5,5′-tetra-methylbenzidine) for color development. The absorbance at 450 nm was read as OD values for quantification of binding activity of antibodies. Data were analyzed using a GraphPad Prism Software.

Test [2] has as its target native VEGFR-1 expressed on the cell surface (human, UniProt P17948 27-1338). Nature of the test: cell-based or functional assay.
For test [3], the target named is T3, soluble recombinant human VEGFR-1 alkaline phosphatase (human, UniProt P17948 27-758).
T3 construct: Made in house in stably transfected cells; also called rhuVEGFR-I AP; VEGFR-I AP; not shown: alkaline phosphatase fusion partner
The test can be described thus: blocking ELISA: antibody preincubated with VEGFR-1 AP, binding to PlGF coated plate. Here is the method:
(§2) Specifically, hybridoma supernatants or purified antibodies were diluted in PBS with 5% FBS and 0.05% Tween 20 (ELISA buffer) and incubated in rhuVEGFR-I AP or AP coated 96-well microtiter plates for 30 minutes. Plates were washed with the ELISA buffer and incubated with goat anti-mouse IgG-horseradish peroxidase (HRP) conjugate (BioSource International, Camarillo, Calif.) for 30 minutes. TMB (3,3′,5,5′-tetra-methylbenzidine) substrate (Kierkegaard and Perry Lab, Inc., Gaithersburg, Md.) was used for color development following the manufacturer's instruction. The absorbance at 450 nanometers (nm) was read for quantification of binding activity of antibodies. For identification of the hybridomas producing anti-VEGFR-I antibodies, hybridoma supernatants were preincubated with VEGFR-I AP for 1 hour. The mixtures were incubated with the ELISA buffer in VEGF or P1GF coated 96-well microtiter plates for 1 hour. PNPP (p-nitrophenyl phosphate) substrate for AP was used for color development following the manufacturer's instruction. The absorbance at 405 nm was read for quantification of VEGFR-I binding to VEGF or P1GF. Optical density (OD) values were read on a microtiter plate reader (Molecular Devices Corp., Sunnyvale, Calif.). ED50 and IC50 of the antibodies were analyzed using GraphPad Prism 3 software (GraphPad Software, Inc., San Diego, Calif.).

Test [4] deals with T3, soluble recombinant human VEGFR-1 …. Nature of the test: ELISA, purified antibody on rhuVEGFR-1 AP coated plate (given as ED50). As for the experimental part: as §2
For test [5], the target named is T4, human VEGFR-2 alkaline phosphatase (human, UniProt P35968 20-764).
T4 construct: also called huVEGFR-2-AP; not shown: alkaline phosphatase fusion partner; not described
The test can be described thus: ELISA: antibody dilutions on plate coated with 1 µg/ml human VEGFR-2 alkaline phosphatase, HRP secondary, O.D. 450. As for the experimental part: as §1

Test [6] deals with T5, recombinant extracellular domain of VEGFR-1 (UniProt P17948 27-758, limits assumed).
T5 construct: extracellular domain
Nature of the test: SPR, BIAcore 2000, VEGFR-1 extracellular domain immobilised at low density. As for the experimental part:
Affinities of anti-VEGFR-1 antibody clones 6F9, 13 G12, 15F1 1, 18F1 were determined by plasmon resonance technology using BIAcore 2000 (Pharmacia, Piscataway, N.J.) according to the procedures provided by the manufacturer. Kinetic analyses of the antibodies were performed by immobilization of recombinant extracellular domain of VEGFR-I onto a sensor surface at a low density. The (kₒₙ) and dissociation (kₒ_{^ff}) rates were determined using the BIAevaluation 2.1 software provided by the manufacturer.

Test [7] deals with T1, recombinant human VEGFR-1 Fc. The test can be described thus: ELISA: antibody dilutions on plate coated with 1 µg/ml human VEGFR-1 Fc, HRP secondary, O.D. 450. As for the experimental part: as §1

Chain of native VEGFR-1 expressed on the cell surface (P17948 27-1338): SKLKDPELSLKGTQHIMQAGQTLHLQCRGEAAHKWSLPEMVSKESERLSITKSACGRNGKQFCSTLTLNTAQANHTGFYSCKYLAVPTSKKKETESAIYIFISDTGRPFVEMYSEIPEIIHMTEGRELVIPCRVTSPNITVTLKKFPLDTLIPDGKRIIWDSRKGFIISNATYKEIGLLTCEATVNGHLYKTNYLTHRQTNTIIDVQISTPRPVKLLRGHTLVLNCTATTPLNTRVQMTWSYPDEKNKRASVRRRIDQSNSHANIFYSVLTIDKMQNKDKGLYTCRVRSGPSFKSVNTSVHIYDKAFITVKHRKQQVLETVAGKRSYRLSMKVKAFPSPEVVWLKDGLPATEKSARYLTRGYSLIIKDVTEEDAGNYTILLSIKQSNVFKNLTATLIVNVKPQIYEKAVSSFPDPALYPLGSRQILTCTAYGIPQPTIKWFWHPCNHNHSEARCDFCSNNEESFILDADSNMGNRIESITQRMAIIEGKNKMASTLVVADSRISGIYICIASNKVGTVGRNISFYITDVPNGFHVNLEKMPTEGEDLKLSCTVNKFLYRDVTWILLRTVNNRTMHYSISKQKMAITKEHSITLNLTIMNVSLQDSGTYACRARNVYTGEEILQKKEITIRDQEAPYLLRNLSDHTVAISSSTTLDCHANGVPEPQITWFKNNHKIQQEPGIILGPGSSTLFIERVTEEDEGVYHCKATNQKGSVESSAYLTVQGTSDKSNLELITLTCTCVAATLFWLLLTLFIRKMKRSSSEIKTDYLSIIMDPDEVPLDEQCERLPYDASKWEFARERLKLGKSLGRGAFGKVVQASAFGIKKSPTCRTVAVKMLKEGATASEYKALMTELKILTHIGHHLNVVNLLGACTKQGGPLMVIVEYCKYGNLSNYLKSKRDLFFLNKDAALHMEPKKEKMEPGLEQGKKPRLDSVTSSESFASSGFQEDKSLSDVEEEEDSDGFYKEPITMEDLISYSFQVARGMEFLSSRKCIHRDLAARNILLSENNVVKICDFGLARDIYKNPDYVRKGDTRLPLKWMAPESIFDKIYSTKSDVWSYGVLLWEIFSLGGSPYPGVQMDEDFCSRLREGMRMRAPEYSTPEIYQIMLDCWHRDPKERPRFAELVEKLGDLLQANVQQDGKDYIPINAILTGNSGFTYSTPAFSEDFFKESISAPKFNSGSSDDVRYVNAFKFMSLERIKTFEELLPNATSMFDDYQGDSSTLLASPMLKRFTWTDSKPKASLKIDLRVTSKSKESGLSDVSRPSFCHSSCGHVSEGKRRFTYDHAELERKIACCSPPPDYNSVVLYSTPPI
T3 sequence (P17948 27-758): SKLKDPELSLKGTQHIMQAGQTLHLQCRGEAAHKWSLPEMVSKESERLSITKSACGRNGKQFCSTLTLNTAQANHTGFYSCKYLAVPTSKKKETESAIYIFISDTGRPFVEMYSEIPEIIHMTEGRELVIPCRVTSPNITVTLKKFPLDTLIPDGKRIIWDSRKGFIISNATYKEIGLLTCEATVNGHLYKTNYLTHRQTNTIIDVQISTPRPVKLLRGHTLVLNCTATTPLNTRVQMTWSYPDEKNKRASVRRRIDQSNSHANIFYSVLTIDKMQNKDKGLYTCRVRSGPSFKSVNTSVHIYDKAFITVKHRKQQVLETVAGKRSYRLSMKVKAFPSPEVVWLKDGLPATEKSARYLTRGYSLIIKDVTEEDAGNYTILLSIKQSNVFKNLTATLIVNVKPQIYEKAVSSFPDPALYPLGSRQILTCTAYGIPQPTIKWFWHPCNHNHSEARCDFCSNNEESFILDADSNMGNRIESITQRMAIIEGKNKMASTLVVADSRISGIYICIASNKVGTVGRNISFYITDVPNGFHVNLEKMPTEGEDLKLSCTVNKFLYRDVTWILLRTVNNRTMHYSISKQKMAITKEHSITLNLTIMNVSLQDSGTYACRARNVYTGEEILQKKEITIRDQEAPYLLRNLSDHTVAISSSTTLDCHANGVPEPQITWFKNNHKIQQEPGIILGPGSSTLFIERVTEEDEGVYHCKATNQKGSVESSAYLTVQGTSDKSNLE
T5 sequence (P17948 27-758 limits assumed): as the sequence (P17948 27-758) above
T1 sequence (P17948 other isoform, or with tags, fused parts or gaps limits assumed): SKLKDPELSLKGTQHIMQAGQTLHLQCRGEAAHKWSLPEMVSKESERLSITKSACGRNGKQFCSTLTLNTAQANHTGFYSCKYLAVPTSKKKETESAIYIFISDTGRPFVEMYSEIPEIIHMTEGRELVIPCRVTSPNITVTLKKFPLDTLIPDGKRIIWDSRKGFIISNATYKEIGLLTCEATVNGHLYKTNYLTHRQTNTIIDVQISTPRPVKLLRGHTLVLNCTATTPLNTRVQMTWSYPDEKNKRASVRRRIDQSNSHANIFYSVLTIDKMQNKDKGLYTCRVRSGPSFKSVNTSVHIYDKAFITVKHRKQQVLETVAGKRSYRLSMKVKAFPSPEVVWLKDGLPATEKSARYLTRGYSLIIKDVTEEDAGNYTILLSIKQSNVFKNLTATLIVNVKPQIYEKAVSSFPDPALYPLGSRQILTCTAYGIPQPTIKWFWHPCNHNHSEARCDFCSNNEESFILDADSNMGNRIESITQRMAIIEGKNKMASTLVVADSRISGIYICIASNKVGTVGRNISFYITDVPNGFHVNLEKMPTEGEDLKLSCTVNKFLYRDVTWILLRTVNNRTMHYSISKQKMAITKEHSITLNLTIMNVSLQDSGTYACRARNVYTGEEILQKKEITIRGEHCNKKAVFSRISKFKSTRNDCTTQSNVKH
T4 sequence (P35968 20-764): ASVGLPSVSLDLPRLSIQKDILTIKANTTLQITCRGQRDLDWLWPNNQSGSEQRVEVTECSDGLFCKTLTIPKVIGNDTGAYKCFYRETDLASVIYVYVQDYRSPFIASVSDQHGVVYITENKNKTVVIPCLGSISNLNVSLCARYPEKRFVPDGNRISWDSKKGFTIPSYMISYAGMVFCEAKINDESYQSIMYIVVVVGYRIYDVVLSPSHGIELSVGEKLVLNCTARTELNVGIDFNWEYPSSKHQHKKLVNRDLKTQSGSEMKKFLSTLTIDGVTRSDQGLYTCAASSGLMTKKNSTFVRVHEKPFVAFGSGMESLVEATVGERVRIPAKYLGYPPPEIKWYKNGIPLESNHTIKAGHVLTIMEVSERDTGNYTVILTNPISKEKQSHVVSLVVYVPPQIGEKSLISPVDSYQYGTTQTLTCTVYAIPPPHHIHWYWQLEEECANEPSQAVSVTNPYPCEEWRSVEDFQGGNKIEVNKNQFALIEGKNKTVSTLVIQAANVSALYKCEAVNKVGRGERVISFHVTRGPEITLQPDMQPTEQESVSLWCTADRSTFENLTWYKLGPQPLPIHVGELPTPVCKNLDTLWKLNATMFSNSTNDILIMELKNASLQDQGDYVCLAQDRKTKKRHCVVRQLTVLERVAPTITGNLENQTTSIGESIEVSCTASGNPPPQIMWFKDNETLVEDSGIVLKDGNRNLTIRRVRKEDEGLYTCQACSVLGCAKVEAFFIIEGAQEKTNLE
T2 sequence (P35918 20-762 limits assumed): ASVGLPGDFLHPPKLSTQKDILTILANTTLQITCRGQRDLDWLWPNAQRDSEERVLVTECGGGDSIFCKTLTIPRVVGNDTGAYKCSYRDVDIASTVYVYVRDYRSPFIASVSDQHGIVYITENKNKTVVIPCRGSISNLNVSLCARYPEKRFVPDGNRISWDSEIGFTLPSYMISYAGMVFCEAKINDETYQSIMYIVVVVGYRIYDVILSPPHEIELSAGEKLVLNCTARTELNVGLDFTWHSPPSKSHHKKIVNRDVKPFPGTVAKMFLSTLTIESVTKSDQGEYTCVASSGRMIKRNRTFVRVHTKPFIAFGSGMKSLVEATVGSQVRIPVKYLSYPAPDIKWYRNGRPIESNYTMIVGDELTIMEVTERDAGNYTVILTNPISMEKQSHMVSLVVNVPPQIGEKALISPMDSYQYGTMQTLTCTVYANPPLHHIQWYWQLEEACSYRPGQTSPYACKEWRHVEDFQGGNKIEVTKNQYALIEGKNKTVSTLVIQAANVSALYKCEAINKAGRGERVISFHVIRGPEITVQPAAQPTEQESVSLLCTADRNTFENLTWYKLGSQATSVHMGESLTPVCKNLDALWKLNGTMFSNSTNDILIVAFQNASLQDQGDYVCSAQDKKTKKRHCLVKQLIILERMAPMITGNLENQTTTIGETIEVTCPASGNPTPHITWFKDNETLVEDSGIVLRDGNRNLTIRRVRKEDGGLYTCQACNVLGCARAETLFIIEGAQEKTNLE

B1: anti-human VEGFR-1 antibody 18F1 (antibody, V domains shown)
VH: QAQVVESGGGVVQSGRSLRLSCAASGFAFSSYGMHWVRQAPGKGLEWVAVIWYDGSNKYYADSVRGRFTISRDNSENTLYLQMNSLRAEDTAVYYCARDHYGSGVHHYFYYGLDVWGQGTTVTVSS
VL: not shown
notes: Fully human antibody (gamma heavy chain, kappa light chain) from hybridomas of KM transgenic mice, purified; The light chain entry runs a few residues into the kappa constant region; also called MC-18F1; IMC-18F1
For the molecule B1, the “EC50 (read off the curve)” value in test [1] and in test [7] was ~3 ng/mL each time. Moreover, the binding result (with mouse VEGFR-2 Fc; in test [5]) was “no binding (tested: 1 µg/ml)” throughout. Besides, the “VEGF-A and P1GF stimulated proliferation of DU4475 breast carcinoma cells (estimated IC50)” value in test [2] was 30 to 50 nM. In test [3], the concentration for half-maximal inhibition (IC50) worked out at 0.55 nM. Besides, the EC50 in test [4] was determined as 0.1 nM. In addition, the Kd in test [6] worked out at 0.054 nM. The kon in test [6] was 810000 M⁻¹ s⁻¹.

These data come from patent US20100028347A1 (Eli Lilly, published 2010).
